The values that follow come from patent US5480971A, “Peralkylated oligopeptide mixtures” (Houghten Pharmaceuticals, Inc., priority 1994, dated 1996).

Square brackets hold non-standard residues; d marks the D form. Ends that are not written are not given here. Peptide text beside a SMILES is read from it. * marks the point of attachment. NMeF = CN[C@@H](Cc1ccccc1)C(=O)O; X3 = C[C@@H](C(=O)*)[N+](C)(C)C; NMeL = CN[C@@H](CC(C)C)C(=O)O; Sar = CNCC(=O)O

One series deals with trypsin. Put plainly: Enzymatic susceptibility to trypsin (RP-HPLC, mass spectral analysis). It is filed as in vitro ADME. Particulars: peptide 1.0 mg/ml, enzyme to peptide 1:50, 0.1M NH4HCO3 pH 7.8, room temperature. Here is the method: (§1) The stability of N-permethylated compounds to proteolysis was examined for two permethylated sequences, AlaGlyGlyPheLeu-NH2 (SEQ ID NO:37) and ArgGlyGlyPheLeu-NH2 (SEQ ID NO:38) with their non-permethylated equivalents used as controls. Treatment of these found compounds by trypsin and chymotrypsin was monitored by RP-HPLC and mass spectral analysis. Rapid cleavage of AGGFL-NH2 (SEQ ID NO:37) by chymotrypsin and RGGFL-NH2 (SEQ ID N0:38) by trypsin was observed (<1 hour), whereas less than 1 percent cleavage of the equivalent permethylated peptides was seen following overnight enzyme exposure.
(§2) The assays were performed in 1 ml 0.1M NH4 HCO3, pH 7.8, at room temperature for 16 hours at a peptide concentration of 1.0 mg/ml. Enzyme to peptide concentration was 1:50.

Another series deals with chymotrypsin. The experiment in a line: Enzymatic susceptibility to chymotrypsin (RP-HPLC, mass spectral analysis). It is filed as in vitro ADME. The conditions noted are these: peptide 1.0 mg/ml, enzyme to peptide 1:50, 0.1M NH4HCO3 pH 7.8, room temperature. Here is the method:
as §1, §2

The conditions of series [1]: Merck Index, 10th ed.; cited from earlier work.
Series [2] can be described thus: Enzymatic susceptibility to chymotrypsin (RP-HPLC, mass spectral analysis). It counts as in vitro ADME. The conditions noted are these: chymotrypsin; overnight enzyme exposure (16 hours), room temperature, pH 7.8; read-out: cleavage by chymotrypsin. Here is the method:
as §1, §2

For the compound “ArgGlyGlyPheLeu-NH2 (RGGFL-NH2) [non-permethylated equivalent used as control]”, the “time in which cleavage by trypsin was observed” value in the series with trypsin was less than 1 h. Turning to “AlaGlyGlyPheLeu-NH2 (AGGFL-NH2) [non-permethylated equivalent used as control, reference compound]”, the “time in which cleavage by chymotrypsin was observed” value with chymotrypsin is less than 1 h.

As for `CC(=O)[C@H]1CC[C@H]2[C@@H]3CCC4=CC(=O)CC[C@]4(C)[C@H]3CC[C@]12C` [progesterone], in series [1], the solubility in water result is reported as “insoluble in water”. For the compound `CNC(=O)[C@H](CC(C)C)N(C)C(=O)[C@H](Cc1ccccc1)N(C)C(=O)CN(C)C(=O)CN(C)C(=O)[C@H](C)[N+](C)(C)C` [PerA-AGGFL] (X3-[Sar][Sar][NMeF][NMeL]-NHMe), the metabolised at 16 h, 1 mg/ml in series [2] is less than 1%.
